This note sets out measurements from paper PMC5170609 (Molecular Biology of the Cell, 2016).

Common to all, as to assay: ELISA
A general note: An ELISA detects its analyte on a solid surface through an enzyme-linked reagent.

Assay [1] deals with wild-type full-length desmin (recombinant) (UniProt P17661 1-470).
Assay [2] deals with desmin E245D (recombinant, desminopathy-linked mutant) (UniProt P17661 1-470, E245D).
For assay [3], the target named is desmin T453I (recombinant, desminopathy-linked mutant) (UniProt P17661 1-470, T453I).
Sequence of desmin T453I (recombinant, desminopathy-linked mutant) (P17661 whole entry T453I): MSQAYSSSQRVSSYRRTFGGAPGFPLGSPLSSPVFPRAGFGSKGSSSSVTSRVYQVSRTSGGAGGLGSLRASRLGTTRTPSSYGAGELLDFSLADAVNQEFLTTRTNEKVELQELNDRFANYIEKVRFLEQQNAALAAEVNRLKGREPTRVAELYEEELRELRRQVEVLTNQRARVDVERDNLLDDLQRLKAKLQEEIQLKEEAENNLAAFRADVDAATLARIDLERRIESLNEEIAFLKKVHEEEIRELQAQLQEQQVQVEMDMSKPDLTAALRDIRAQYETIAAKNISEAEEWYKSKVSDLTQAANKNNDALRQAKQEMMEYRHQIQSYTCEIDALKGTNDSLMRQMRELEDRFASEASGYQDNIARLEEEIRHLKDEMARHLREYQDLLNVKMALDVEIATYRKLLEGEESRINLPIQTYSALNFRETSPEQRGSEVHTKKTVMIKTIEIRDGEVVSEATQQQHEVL

Sequence of desmin E245D (recombinant, desminopathy-linked mutant) (P17661 whole entry E245D): as the sequence (P17661 whole entry T453I) above, with E245D, I453T counted along it
Sequence of wild-type full-length desmin (recombinant) (P17661 whole entry): as the sequence (P17661 whole entry T453I) above, with I453T counted along it

B1: His-nebulette modules 1–5 (recombinant) (domain or fragment, UniProt O76041 32-213, looked up)
chain: PVIEDLSMELARKCTELISDIRYKEEFKKSKDKCTFVTDSPMLNHVKNIGAFISEAKYKGTIKADLSNSLYKRMPATIDSVFAGEVTQLQSEVAYKQKHDAAKGFSDYAHMKEPPEVKHAMEVNKHQSNISYRKDVQDTHTYSAELDRPDIKMATQISKIISNAEYKKGQGIMNKEPAVIGR
For orientation: Kd means a measure of binding affinity in units of concentration. Consider B1, for which the results for the Kd in assay [1], in assay [2] and in assay [3] were 16 to 24 nM, 5 to 6 nM and 3 nM, respectively.
